Consider two proteins from paper PMC7794784, “A Very Bright Far-Red Bioluminescence Emitting Combination Based on Engineered Railroad Worm Luciferase and 6′-Amino-Analogs for Bioimaging Purposes” (International Journal of Molecular Sciences, 2020).

Substrate in series [1]: Nc1ncnc2c1ncn2[C@@H]1O[C@H](COP(=O)(O)OP(=O)(O)OP(=O)(O)O)[C@@H](O)[C@H]1O
Description: purified protein. To be noted: co-substrate D-luciferin, 4 mM MgSO4, 0.10 M Tris-HCl pH 8.0, 22 °C.

Substrate in series [2]: O=C(O)[C@H]1CSC(c2nc3ccc(N4CCCC4)cc3s2)=N1
Description: bioluminescence peak intensity (I0), Lineweaver-Burk. The class given is biochemical, Phrixothrix hirtus. The settings on record: 2 mM ATP, 4 mM MgSO4, 0.10 M Tris-HCl pH 8.0, 22 °C, kcat in relative luminometer counts.

Substrate in series [3]: O=C(O)[C@H]1CSC(c2nc3ccc(O)cc3s2)=N1
The series is described as above. The format is biochemical, Phrixothrix hirtus. To be noted: 2 mM ATP, 4 mM MgSO4, 0.10 M Tris-HCl pH 8.0, 22 °C, kcat in relative luminometer counts.

B1: PxRE luciferase (P. hirtus red-emitting luciferase, RE WT) (Phrixothrix hirtus) (protein)
chain: MEEENIVNGDRPRDLVFPGTAGLQLYQSLYKYSYITDGIIDAHTNEVISYAQIFETSCRLAVSLEKYGLDHNNVVAICSENNIHFFGPLIAALYQGIPMATSNDMYTEREMIGHLNISKPCLMFCSKKSLPFILKVQKHLDFLKKVIVIDSMYDINGVECVFSFVSRYTDHAFDPVKFNPKEFDPLERTALIMTSSGTTGLPKGVVISHRSITIRFVHSSDPIYGTRIAPDTSILAIAPFHHAFGLFTALAYFPVGLKIVMVKKFEGEFFLKTIQNYKIASIVVPPPIMVYLAKSPLVDEYNLSSLTEIACGGSPLGRDIADKVAKRLKVHGILQGYGLTETCSALILSPNDRELKKGAIGTPMPYVQVKVIDINTGKALGPREKGEICFKSQMLMKGYHNNPQATRDALDKDGWLHTGDLGYYDEDRFIYVVDRLKELIKYKGYQVAPAELENLLLQHPNISDAGVIGIPDEFAGQLPSACVVLEPGKTMTEKEVQDYIAELVTTTKHLRGGVVFIDSIPKGPTGKLMRNELRAIFAREQAKSKL
As for B1, the Km in series [1] stood at 230 µM; in series [2] it was 0.5 µM; in series [3], 7 µM.

B2: PxRE luciferase (P. hirtus red-emitting luciferase, RE WT) (Phrixothrix hirtus; R215K) (protein)
chain: MEEENIVNGDRPRDLVFPGTAGLQLYQSLYKYSYITDGIIDAHTNEVISYAQIFETSCRLAVSLEKYGLDHNNVVAICSENNIHFFGPLIAALYQGIPMATSNDMYTEREMIGHLNISKPCLMFCSKKSLPFILKVQKHLDFLKKVIVIDSMYDINGVECVFSFVSRYTDHAFDPVKFNPKEFDPLERTALIMTSSGTTGLPKGVVISHRSITIKFVHSSDPIYGTRIAPDTSILAIAPFHHAFGLFTALAYFPVGLKIVMVKKFEGEFFLKTIQNYKIASIVVPPPIMVYLAKSPLVDEYNLSSLTEIACGGSPLGRDIADKVAKRLKVHGILQGYGLTETCSALILSPNDRELKKGAIGTPMPYVQVKVIDINTGKALGPREKGEICFKSQMLMKGYHNNPQATRDALDKDGWLHTGDLGYYDEDRFIYVVDRLKELIKYKGYQVAPAELENLLLQHPNISDAGVIGIPDEFAGQLPSACVVLEPGKTMTEKEVQDYIAELVTTTKHLRGGVVFIDSIPKGPTGKLMRNELRAIFAREQAKSKL
Regarding B2, the Km was 50 µM in series [1], 1.0 µM in series [2] and 40 µM in series [3].
